Experimental data: patent US20230110958A1 (Regeneron, published 2023)

B1: IL27M12, monovalent EBI3-p28 x Fc (Fc fusion)
chain 1: YTETALVALSQPRVQCHASRYPVAVDCSWTPLQAPNSTRSTSFIATYRLGVATQQQSQPCLQRSPQASRCTIPDVHLFSTVPYMLNVTAVHPGGASSSLLAFVAERIIKPDPPEGVRLRTAGQRLQVLWHPPASWPFPDIFSLKYRLRYRRRGASHFRQVGPIEATTFTLRNSKPHAKYCIQVSAQDLTDYGKPSDWSLPGQVESAPHKPGGGGSGGGGSGGGGSGGGGSFPTDPLSLQELRREFTVSLYLARKLLSEVQGYVHSFAESRLPGVNLDLLPLGYHLPNVSLTFQAWHHLSDSERLCFLATTLRPFPAMLGGLGTQGTWTSSEREQLWAMRLDLRDLHRHLRFQVLAAGFKCSKEEEDKEEEEEEEEEEKKLPLGALGGPNQVSSQVSWPQLLYTYQLLHSLELVLSRAVRDLLLLSLPRRPGSAWDSGGGGSGGGGSGGGGSESKYGPPCPPCPAPPVAGPSVFLFPPKPKDTLMISRTPEVTCVVVDVSQEDPEVQFNWYVDGVEVHNAKTKPREEQFNSTYRVVSVLTVLHQDWLNGKEYKCKVSNKGLPSSIEKTISKAKGQPREPQVYTLPPSQEEMTKNQVSLWCLVKGFYPSDIAVEWESNGQPENNYKTTPPVLDSDGSFFLYSRLTVDKSRWQEGNVFSCSVMHEALHNHYTQKSLSLSLGK
chain 2: ESKYGPPCPPCPAPPVAGPSVFLFPPKPKDTLMISRTPEVTCVVVDVSQEDPEVQFNWYVDGVEVHNAKTKPREEQFNSTYRVVSVLTVLHQDWLNGKEYKCKVSNKGLPSSIEKTISKAKGQPREPQVYTLPPSQEEMTKNQVSLSCAVKGFYPSDIAVEWESNGQPENNYKTTPPVLDSDGSFFLVSRLTVDKSRWQEGNVFSCSVMHEALHNRFTQKSLSLSPGK
B2: IL27M6, monovalent Fc-p28 x EBI3 (Fc fusion)
chain 1: ESKYGPPCPPCPAPPVAGPSVFLFPPKPKDTLMISRTPEVTCVVVDVSQEDPEVQFNWYVDGVEVHNAKTKPREEQFNSTYRVVSVLTVLHQDWLNGKEYKCKVSNKGLPSSIEKTISKAKGQPREPQVYTLPPSQEEMTKNQVSLWCLVKGFYPSDIAVEWESNGQPENNYKTTPPVLDSDGSFFLYSRLTVDKSRWQEGNVFSCSVMHEALHNHYTQKSLSLSLGKGGGGSGGGGSGGGGSFPTDPLSLQELRREFTVSLYLARKLLSEVQGYVHSFAESRLPGVNLDLLPLGYHLPNVSLTFQAWHHLSDSERLCFLATTLRPFPAMLGGLGTQGTWTSSEREQLWAMRLDLRDLHRHLRFQVLAAGFKCSKEEEDKEEEEEEEEEEKKLPLGALGGPNQVSSQVSWPQLLYTYQLLHSLELVLSRAVRDLLLLSLPRRPGSAWDS
chain 2: ESKYGPPCPPCPAPPVAGPSVFLFPPKPKDTLMISRTPEVTCVVVDVSQEDPEVQFNWYVDGVEVHNAKTKPREEQFNSTYRVVSVLTVLHQDWLNGKEYKCKVSNKGLPSSIEKTISKAKGQPREPQVYTLPPSQEEMTKNQVSLSCAVKGFYPSDIAVEWESNGQPENNYKTTPPVLDSDGSFFLVSRLTVDKSRWQEGNVFSCSVMHEALHNRFTQKSLSLSPGKGGGGSGGGGSGGGGSYTETALVALSQPRVQCHASRYPVAVDCSWTPLQAPNSTRSTSFIATYRLGVATQQQSQPCLQRSPQASRCTIPDVHLFSTVPYMLNVTAVHPGGASSSLLAFVAERIIKPDPPEGVRLRTAGQRLQVLWHPPASWPFPDIFSLKYRLRYRRRGASHFRQVGPIEATTFTLRNSKPHAKYCIQVSAQDLTDYGKPSDWSLPGQVESAPHKP
B3: IL27M3, Bivalent p28-EBI3-Fc (Fc fusion)
chain: FPTDPLSLQELRREFTVSLYLARKLLSEVQGYVHSFAESRLPGVNLDLLPLGYHLPNVSLTFQAWHHLSDSERLCFLATTLRPFPAMLGGLGTQGTWTSSEREQLWAMRLDLRDLHRHLRFQVLAAGFKCSKEEEDKEEEEEEEEEEKKLPLGALGGPNQVSSQVSWPQLLYTYQLLHSLELVLSRAVRDLLLLSLPRRPGSAWDSGGGGSGGGGSGGGGSGGGGSGGGGSYTETALVALSQPRVQCHASRYPVAVDCSWTPLQAPNSTRSTSFIATYRLGVATQQQSQPCLQRSPQASRCTIPDVHLFSTVPYMLNVTAVHPGGASSSLLAFVAERIIKPDPPEGVRLRTAGQRLQVLWHPPASWPFPDIFSLKYRLRYRRRGASHFRQVGPIEATTFTLRNSKPHAKYCIQVSAQDLTDYGKPSDWSLPGQVESAPHKPGGGGSGGGGSGGGGSESKYGPPCPPCPAPPVAGPSVFLFPPKPKDTLMISRTPEVTCVVVDVSQEDPEVQFNWYVDGVEVHNAKTKPREEQFNSTYRVVSVLTVLHQDWLNGKEYKCKVSNKGLPSSIEKTISKAKGQPREPQVYTLPPSQEEMTKNQVSLTCLVKGFYPSDIAVEWESNGQPENNYKTTPPVLDSDGSFFLYSRLTVDKSRWQEGNVFSCSVMHEALHNHYTQKSLSLSLGK
B4: IL27M4, Bivalent Fc-EBI3-p28 (Fc fusion)
chain: ESKYGPPCPPCPAPPVAGPSVFLFPPKPKDTLMISRTPEVTCVVVDVSQEDPEVQFNWYVDGVEVHNAKTKPREEQFNSTYRVVSVLTVLHQDWLNGKEYKCKVSNKGLPSSIEKTISKAKGQPREPQVYTLPPSQEEMTKNQVSLTCLVKGFYPSDIAVEWESNGQPENNYKTTPPVLDSDGSFFLYSRLTVDKSRWQEGNVFSCSVMHEALHNHYTQKSLSLSLGKGGGGSGGGGSGGGGSYTETALVALSQPRVQCHASRYPVAVDCSWTPLQAPNSTRSTSFIATYRLGVATQQQSQPCLQRSPQASRCTIPDVHLFSTVPYMLNVTAVHPGGASSSLLAFVAERIIKPDPPEGVRLRTAGQRLQVLWHPPASWPFPDIFSLKYRLRYRRRGASHFRQVGPIEATTFTLRNSKPHAKYCIQVSAQDLTDYGKPSDWSLPGQVESAPHKPGGGGSGGGGSGGGGSGGGGSFPTDPLSLQELRREFTVSLYLARKLLSEVQGYVHSFAESRLPGVNLDLLPLGYHLPNVSLTFQAWHHLSDSERLCFLATTLRPFPAMLGGLGTQGTWTSSEREQLWAMRLDLRDLHRHLRFQVLAAGFKCSKEEEDKEEEEEEEEEEKKLPLGALGGPNQVSSQVSWPQLLYTYQLLHSLELVLSRAVRDLLLLSLPRRPGSAWDS
B5: IL27M13, Bivalent p28-Fc (Fc fusion)
chain: FPTDPLSLQELRREFTVSLYLARKLLSEVQGYVHSFAESRLPGVNLDLLPLGYHLPNVSLTFQAWHHLSDSERLCFLATTLRPFPAMLGGLGTQGTWTSSEREQLWAMRLDLRDLHRHLRFQVLAAGFKCSKEEEDKEEEEEEEEEEKKLPLGALGGPNQVSSQVSWPQLLYTYQLLHSLELVLSRAVRDLLLLSLPRRPGSAWDSGGGGSGGGGSGGGGSESKYGPPCPPCPAPPVAGPSVFLFPPKPKDTLMISRTPEVTCVVVDVSQEDPEVQFNWYVDGVEVHNAKTKPREEQFNSTYRVVSVLTVLHQDWLNGKEYKCKVSNKGLPSSIEKTISKAKGQPREPQVYTLPPSQEEMTKNQVSLTCLVKGFYPSDIAVEWESNGQPENNYKTTPPVLDSDGSFFLYSRLTVDKSRWQEGNVFSCSVMHEALHNHYTQKSLSLSLGK
B6: IL27M5, Bivalent Fc-p28-EBI3 (Fc fusion)
chain: ESKYGPPCPPCPAPPVAGPSVFLFPPKPKDTLMISRTPEVTCVVVDVSQEDPEVQFNWYVDGVEVHNAKTKPREEQFNSTYRVVSVLTVLHQDWLNGKEYKCKVSNKGLPSSIEKTISKAKGQPREPQVYTLPPSQEEMTKNQVSLTCLVKGFYPSDIAVEWESNGQPENNYKTTPPVLDSDGSFFLYSRLTVDKSRWQEGNVFSCSVMHEALHNHYTQKSLSLSLGKGGGGSGGGGSGGGGSFPTDPLSLQELRREFTVSLYLARKLLSEVQGYVHSFAESRLPGVNLDLLPLGYHLPNVSLTFQAWHHLSDSERLCFLATTLRPFPAMLGGLGTQGTWTSSEREQLWAMRLDLRDLHRHLRFQVLAAGFKCSKEEEDKEEEEEEEEEEKKLPLGALGGPNQVSSQVSWPQLLYTYQLLHSLELVLSRAVRDLLLLSLPRRPGSAWDSGGGGSGGGGSGGGGSGGGGSGGGGSYTETALVALSQPRVQCHASRYPVAVDCSWTPLQAPNSTRSTSFIATYRLGVATQQQSQPCLQRSPQASRCTIPDVHLFSTVPYMLNVTAVHPGGASSSLLAFVAERIIKPDPPEGVRLRTAGQRLQVLWHPPASWPFPDIFSLKYRLRYRRRGASHFRQVGPIEATTFTLRNSKPHAKYCIQVSAQDLTDYGKPSDWSLPGQVESAPHKP

Each binder was assayed against T1, murine IL27 receptor (IL27Ra and gp130) on mouse cells (MC9/STAT3-Luc reporter cells; splenic CD4+ T cells) (mouse, UniProt O70394 25-623; Q00560 23-917) (assay: cell-based or functional assay).
T1 sequence (looked up) 1: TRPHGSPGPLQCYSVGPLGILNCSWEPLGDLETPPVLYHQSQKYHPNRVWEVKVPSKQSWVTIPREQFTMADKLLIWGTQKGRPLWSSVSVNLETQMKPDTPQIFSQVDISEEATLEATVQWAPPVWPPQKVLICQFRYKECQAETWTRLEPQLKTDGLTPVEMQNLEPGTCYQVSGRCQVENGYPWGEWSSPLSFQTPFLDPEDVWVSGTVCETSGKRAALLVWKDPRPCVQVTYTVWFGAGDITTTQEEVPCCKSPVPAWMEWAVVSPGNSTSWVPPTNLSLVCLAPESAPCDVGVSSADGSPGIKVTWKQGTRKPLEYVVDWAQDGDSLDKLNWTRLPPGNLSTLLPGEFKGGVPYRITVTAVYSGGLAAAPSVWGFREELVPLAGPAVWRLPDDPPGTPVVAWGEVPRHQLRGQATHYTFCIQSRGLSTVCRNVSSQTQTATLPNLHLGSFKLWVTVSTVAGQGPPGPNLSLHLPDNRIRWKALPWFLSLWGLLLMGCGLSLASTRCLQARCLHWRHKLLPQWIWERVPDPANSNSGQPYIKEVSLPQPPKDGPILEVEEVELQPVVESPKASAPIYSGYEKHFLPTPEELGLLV
T1 sequence (looked up) 2: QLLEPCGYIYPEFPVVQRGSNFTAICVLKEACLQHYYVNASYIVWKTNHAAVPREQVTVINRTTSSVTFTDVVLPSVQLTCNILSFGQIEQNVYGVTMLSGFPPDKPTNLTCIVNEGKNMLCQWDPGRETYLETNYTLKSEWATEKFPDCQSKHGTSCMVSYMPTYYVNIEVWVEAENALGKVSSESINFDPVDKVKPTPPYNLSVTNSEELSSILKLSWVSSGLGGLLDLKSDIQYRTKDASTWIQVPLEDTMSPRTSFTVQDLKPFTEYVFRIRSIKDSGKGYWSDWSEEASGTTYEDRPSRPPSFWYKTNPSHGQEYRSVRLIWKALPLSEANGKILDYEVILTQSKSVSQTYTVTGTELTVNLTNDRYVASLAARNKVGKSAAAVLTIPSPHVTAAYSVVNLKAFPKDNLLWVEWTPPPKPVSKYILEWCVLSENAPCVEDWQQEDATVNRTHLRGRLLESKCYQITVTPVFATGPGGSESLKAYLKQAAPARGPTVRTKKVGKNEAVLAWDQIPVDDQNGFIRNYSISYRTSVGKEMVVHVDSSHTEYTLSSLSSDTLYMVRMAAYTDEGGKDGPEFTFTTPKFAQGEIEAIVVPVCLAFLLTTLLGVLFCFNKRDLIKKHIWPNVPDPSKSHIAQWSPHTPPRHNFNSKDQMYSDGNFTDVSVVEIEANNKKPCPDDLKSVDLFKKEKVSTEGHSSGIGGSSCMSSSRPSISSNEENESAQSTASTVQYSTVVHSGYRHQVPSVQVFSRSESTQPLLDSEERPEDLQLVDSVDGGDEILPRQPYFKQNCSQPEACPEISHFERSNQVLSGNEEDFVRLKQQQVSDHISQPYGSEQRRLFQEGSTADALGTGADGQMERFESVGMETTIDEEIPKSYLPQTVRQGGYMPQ
B1 was tested, and the “EC50 (M), STAT3 luciferase, MC9 cells” value was 1.22e-11 M and the “FOLD INDUCTION, STAT3 luciferase, MC9 cells” value (from here on “FOLD INDUCTION”) was 2.68 fold. With B2 the “EC50 (M), STAT3 luciferase, MC9 cells” value was 3.21e-11 M and the “FOLD INDUCTION” value was 2.8 fold. With B3 the “EC50 (M), STAT3 luciferase, MC9 cells” value was 8.63e-10 M and the “FOLD INDUCTION” value was 3.02 fold. In the case of B4, the “EC50 (M), STAT3 luciferase, MC9 cells” value is reported as 4.71e-10 M and the “FOLD INDUCTION” value is reported as 2.78 fold. B5 was tested, and the “FOLD INDUCTION” value was 1.11 fold. For B6, the “EC50 (M), STAT3 luciferase, MC9 cells” value was 4.19e-10 M and the “FOLD INDUCTION” value was 2.91 fold.
